Substrate in the data set: N=C(N)NCCC[C@H](N)C(=O)O
As to the kind of experiment: purified protein. The data set is classed as biochemical, Tribolium castaneum. As to conditions: forward reaction, 0.9 mM ATP, 20 mM MgCl2, 50 mM Tris-HCl pH 7.5, 30 °C, L-arginine varied 0.2-10 mM.

B1: TcAK1 (Tribolium castaneum) (protein)
chain: MVDAAVLEKLEAGFKKLEASDSKSLLKKYLTRELFDKLKTKKTSFGSTLLDVIQSGLENHDSGIGIYAPDADSYSVFADLFDPIIEDYHGGFKKTDKHPPKDWGDVNAFGNLDPAGEFVVSTRVRCGRSLEGYPFNPCLTEEQYKEMEQKVSSTLSGLEGELKGTFYPLTGMSKEVQQKLIDDHFLFKEGDRFLQAANACRFWPTGRGIFHNDAKTFLVWCNEEDHLRIISMQMGGDLGQVYRRLVTGVNDIEKRLPFSHSDRFGFLTFCPTNLGTTVRASVHIKVPKLAANKAKLDEVAAKFNLQVRGTRGEHTEAEGGVYDISNKRRMGLTEFDAVKEMYDGISEIIKMEKEL
notes: His-tagged in pQE-30-XA, E. coli M15, Ni-NTA; signature CP(S/T)N(I/L)GT at 270-276
Broadly, the Km is the substrate concentration at which the rate is half of its maximum. By kcat is commonly meant the number of substrate molecules converted per active site and unit of time at saturation. As usually defined, the kcat/Km is the second-order rate constant that governs catalysis at low substrate concentration. As to B1, the Km turned out to be 1500 ± 20 µM, the kcat came out at 172.7 ± 5.8 s⁻¹ and the specificity constant (kcat/Km) came to 113000 M⁻¹ s⁻¹.

B2: TcAK2 (Tribolium castaneum) (protein)
chain: MAKAKCHNCETKCGKGKINPEVLTKLEDGFRRLATSNSQSLLKKYLTQAVFDKLKSKKTGFGSTLLDCIQSGLENPDSNIGVYAPDPEAYTVFAELFDPIIDEYHGGFKKTDQHPASTWGDLKSIGDVDPDQKYVVSTRIRCGRSLAGYPFNPCLTEAQYKEMEKKVSGTLMSLTGELKGKYYPLTGMSKRDQQQLIDDHFLFKEGDRFLQAANACRFWPTGRGIFHNTKKTFLVWLNEEDHLRIISMQKGGNVGEVYQRLVCAVEEIETKLKFSRSDRFGYLTFCPTNLGTTIRASVHIQVPKLAKDKAKLEAVANQFNLQVRGTRGEHSEAEEGVYDISNRRRLGLTEYDAVKEMHDGILKIIEMESCM
notes: His-tagged in pQE-30-XA, E. coli M15, Ni-NTA; signature CP(S/T)N(I/L)GT at 286-292
Turning to B2, the Km is 3700 ± 40 µM, the kcat was found to be 12.7 ± 0.95 s⁻¹ and the catalytic efficiency (kcat/Km) amounted to 3500 M⁻¹ s⁻¹.
